No end group written: not given here. KLH = keyhole limpet hemocyanin
Test system: aggregated human αSyn
Assay: Antibody-inducing ability in mice: ELISA antibody titer of immune serum with respect to aggregated human αSyn
Type: in vivo, mouse
In short: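 Female balb/c mice (6 weeks) immunized i.m. twice, 2 weeks apart, with conjugate (250 μg/mouse) or KLH-DMPVDPDN (25 μg/mouse) plus Alum (50 μg/mouse); serum taken 2 weeks after second dose. ELISA on plates coated with aggregated human αSyn (15 ng/well), anti-mouse IgG-HRP, TMB, A450; titers expressed relative to reference conjugate set to 1 (log).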

KLH-C-DMPVDPDN ({KLH}-CDMPVDPDN) [KLH-DMPVDPDN, comparison vaccine, reference compound]
Antibody-inducing ability regarding the aggregated human αSyn (in words) (Example 2, balb/c mice): very weak
Antibody titer with respect to aggregated human αSyn (N = 4 − 6, mean ± standard deviation) (Example 2, balb/c mice, i.m. twice at 2-week interval, Alum, AJ conjugates 250 μg/mouse, KLH-DMPVDPDN 25 μg/mouse, serum 2 weeks after second administration): 208 ± 205
Induction of the antibody to aggregated human αSyn (in words) (Example 4, balb/c mice): did not induce the antibody to aggregated human αSyn
Antibody titer with respect to aggregated human αSyn (mean ± standard deviation) (Example 4, balb/c mice, i.m. twice at 2-week interval, Alum, AJ conjugates 250 μg/mouse, KLH-DMPVDPDN 25 μg/mouse): 36 ± 20

Reference: patent publication US20240270801A1, “EPITOPE PEPTIDE OF HUMAN ALPHA-SYNUCLEIN AND PHARMACEUTICAL COMPOSITION INCLUDING SAID PEPTIDE” (Sumitomo Pharma Co., Ltd., priority 2021, published 2024)
